Read-outs that look alike come from different tables or passages of the source.

First the molecules themselves.
T1: Ddc1 (S. cerevisiae, UniProt Q08949 1-612)
T1 sequence: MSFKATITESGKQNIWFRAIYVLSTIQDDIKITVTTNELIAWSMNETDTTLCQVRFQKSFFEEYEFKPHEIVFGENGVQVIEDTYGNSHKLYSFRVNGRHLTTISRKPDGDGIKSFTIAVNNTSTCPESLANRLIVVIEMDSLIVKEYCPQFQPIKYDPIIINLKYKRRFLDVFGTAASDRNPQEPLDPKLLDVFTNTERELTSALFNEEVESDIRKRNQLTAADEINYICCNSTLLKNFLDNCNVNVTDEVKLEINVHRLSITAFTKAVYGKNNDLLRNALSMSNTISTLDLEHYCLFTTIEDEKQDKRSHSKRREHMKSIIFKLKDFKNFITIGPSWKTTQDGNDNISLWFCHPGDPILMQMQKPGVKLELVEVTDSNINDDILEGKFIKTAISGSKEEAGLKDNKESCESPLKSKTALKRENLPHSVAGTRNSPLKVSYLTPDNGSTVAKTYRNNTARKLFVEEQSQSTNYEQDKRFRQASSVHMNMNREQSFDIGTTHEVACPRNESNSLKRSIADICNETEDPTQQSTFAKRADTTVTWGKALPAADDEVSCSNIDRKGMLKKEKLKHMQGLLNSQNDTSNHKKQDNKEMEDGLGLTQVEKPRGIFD

B1: Rad17 (natural protein, S. cerevisiae)
chain: MRINSELANKFSASTVHLEHITTALSCLTPFGSKDDVLIFIDADGLSFVRENNHVIKIQLLLSRELFMSYSYRNETEDHMKLCVKINHILDSVSVMNRNSDDIVECTLSYDGHGSPFVLIFEDSFISERVEYSTYLIKDFDTNGLELDRERISFEAIIKGEALHSALKDLKEIGCKECYVYAKTEANDENVFALISKSQLGFSKIKLPSNRSILEKLQVFDGDSTTVIDGFAVIGFFDFTSFDKIRKSTKIASKVLFRMDVHGVLSVNILSQTDDVIITDTTRPSNNRPGSIRQLQLPKDYPGIVIEVCMLEKESIDEAAQTEIELLMETNELGNRNSFKKSTIRKRYGTDKGNETSNDNLLQLNGKKIKLPSEEENNKNRESEDEENHCKYPTKDIPIFF
B2: Mec3 (natural protein, S. cerevisiae, UniProt Q02574 1-474, looked up)
chain: MKLKLIVNGCEAPDDYKLLRTTINTVASLRKTAILRFNSERLTIISTPKSSLNSSNNGTILRGDTGQLWCTIPHDVFRLYTVISARELNTITMECNCDSLLSVFKRYDRVMNQGSSSNMTIKLQSMPEWNTNNGTLSGGTAGGVDTTSKPNPICALGITFEEIVHTSGPNDAIVMNGGVDEHNGLPTTVGTGNLLASNKVIMHSFKVPVKLLFRAQDTRIQEPMINYIQLMMYKLPPISGEFGSAFHGFIRRVERYSNVNHIHLMGVKKKEHGNEGDDVELKIIVNELDWHLEICWNGPLDSVIQRQEGLTDNPSQNQHIDTDGRQEEGSLPIIEADKPMSSLYTNTRDREMEENIRYDEDLLRIEDSSIADTRGNIYTADTSGDTEFNDISVMVEKAEQESSSTHEVIIRCKDWKVCSKLYAAFEEVVLAISHDESCVFHCSLDRGSLEDSEDVEKPRERGQIIYYIARSKGL
B3: 10-nt gapped DNA (cryo-EM) (mixed)
DNA 1: CGGTATAGGCGATACGAATCTTTTTTTTTTCCGTATAGCCGTAGCGAGCC
DNA 2: GGCTCGCTACGGCTATACGG
DNA 3: GATTCGTATCGCCTATACCG
B4: 5-nt gapped DNA (cryo-EM) (mixed)
DNA 1: CGGTATAGGCGATACGAATCTTTTTCCGTATAGCCGTAGCGAGCC
DNA 2: GGCTCGCTACGGCTATACGG
DNA 3: GATTCGTATCGCCTATACCG
B5: 10-nt gap DNA (loading) (mixed)
DNA 1: CGGTATAGGCGATACGAATCTTTTTTTTTTCCGTATAGCCGTAGCGAGCCCGACCATACC
DNA 2: GGTATGGTCGGGCTCGCTACGGCTATACGG
DNA 3: GATTCGTATCGCCTATACCG
modifications: 5' phosphate on primer 2

The target of the series “Mec3” is B2. Kind of series: cryo-EM structure.
The next series deals with T1, Ddc1. Kind of series: cryo-EM structure.
Series [1] addresses T2, Rad24-RFC clamp loader;9-1-1 checkpoint clamp (Saccharomyces cerevisiae;Saccharomyces …, UniProt P32641;P40339;P38629;P40348;P38251;Q08949;Q02574;P48581 …, |). Kind of series: cryo-EM.
The target of series [2] is T2, Rad24-RFC clamp loader;9-1-1 checkpoint …. Nature of the series: cryo-EM. The source holds these as a separate data set.
Series [3] deals with Rad24-RFC clamp loader;32P-9-1-1 checkpoint clamp (Saccharomyces cerevisiae;Saccharomyces …, UniProt P32641;P40339;P38629;P40348;P38251;Q08949;Q02574;P48581 …, |). Kind of series: magnetic bead clamp loading.

As to B1, in the series with Mec3, the binding result is on record as “binds”. In the case of B2, in the series with Ddc1, the binding result is “binds”. With B3, the binding result in series [1] is given as “binds”. B4: the binding result in series [2] is on record as “binds”. On to B5, for which the binding result in series [3] is on record as “binds”.

(Values after paper PMC10529453 (Cell reports, 2023).)
